The values that follow come from article PMC10656488 (2023).

For the experiment, the target named is HSPA5 protein (wild type, in vitro systems, ITC and SPR) (UniProt P20029 20-655). In words: ITC. (In general: Isothermal titration calorimetry measures the heat released or taken up as one component is titrated into another.)
Chain of HSPA5 protein (wild type, in vitro systems, ITC and SPR) (P20029 20-655): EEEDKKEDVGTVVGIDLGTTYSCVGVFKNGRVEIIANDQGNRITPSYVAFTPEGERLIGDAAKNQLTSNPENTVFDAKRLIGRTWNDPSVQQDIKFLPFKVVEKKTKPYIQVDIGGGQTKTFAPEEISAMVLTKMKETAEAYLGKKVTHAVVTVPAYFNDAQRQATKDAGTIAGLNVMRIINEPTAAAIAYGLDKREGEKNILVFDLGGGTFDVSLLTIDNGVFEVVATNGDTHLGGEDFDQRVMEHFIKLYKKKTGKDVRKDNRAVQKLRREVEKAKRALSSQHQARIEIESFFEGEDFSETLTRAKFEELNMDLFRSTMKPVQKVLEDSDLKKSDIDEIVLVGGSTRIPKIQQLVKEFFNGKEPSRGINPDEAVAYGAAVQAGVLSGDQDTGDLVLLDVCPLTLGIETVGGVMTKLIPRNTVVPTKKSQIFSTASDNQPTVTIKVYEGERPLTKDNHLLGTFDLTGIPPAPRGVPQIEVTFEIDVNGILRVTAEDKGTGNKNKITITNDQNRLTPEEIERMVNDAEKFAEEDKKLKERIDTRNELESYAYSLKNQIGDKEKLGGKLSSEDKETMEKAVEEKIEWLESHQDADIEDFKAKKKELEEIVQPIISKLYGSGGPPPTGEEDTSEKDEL

B1: ATAT1 protein (in vitro acetylation system, ITC and SPR) (enzyme)
chain: MEFPFDVDALFPERITVLDQHLRPPARRPGTTTPARVDLQQQIMTIVDELGKASAKAQHLPAPITSALRMQSNRHVIYILKDTSARPAGKGAIIGFLKVGYKKLFVLDDREAHNEVEPLCILDFYIHESVQRHGHGRELFQHMLQKERVEPHQLAIDRPSPKLLKFLNKHYNLETTVPQVNNFVIFEGFFAHQHRPPTSSLRATRHSRAAVADPIPAAPARKLPPKRAEGDIKPYSSSDREFLKVAVEPPWPLNRAPRRATPPAHPPPRSSSLGNSPDRGPLRPFVPEQELLRSLRLCPPHPTARLLLATDPGGSPAQRRRTRGTPWGLVAQSCHYSRHGGFNTSFLGTGNQERKQGEQEAEDRSASEDRVLLLDGSGEEPTQTGAPRAQAPPPQSWTVGGDIMNARVIRNLQERRSTRPW
For B1, the equilibrium dissociation constant (Kd) amounted to 110 nM.

B2: SCNN1B protein (in vitro ubiquitination system, ITC and SPR) (natural protein)
chain: MPVKKYLLKCLHRLQKGPGYTYKELLVWYCNNTNTHGPKRIICEGPKKKAMWFLLTLLFACLVCWQWGVFIQTYLSWEVSVSLSMGFKTMNFPAVTVCNSSPFQYSKVKHLLKDLDELMEAVLEKILAPEASHSNTTRTLNFTIWNHTPLVLIDERNPDHPVVLNLFGDSHNSSNPAPGSTCNAQGCKVAMRLCSANGTVCTLRNFTSATQAVTEWYILQATNIFSQVLPQDLVGMGYAPDRIILACLFGTEPCSHRNFTPIFYPDYGNCYIFNWGMTEETLPSANPGTEFGLKLILDIGQEDYVPFLASTAGARLMLHEQRTYPFIREEGIYAMAGTETSIGVLVDKLQRKGEPYSPCTMNGSDVAIKNLYSVYNTTYSIQACLHSCFQDHMIRNCSCGHYLYPLPEGEKYCNNRDFPDWAYCYLNLQMSVTQRETCLSMCKESCNDTQYKMTISMADWPSEASEDWILHVLSQERDQSSNITLSRKGIVKLNIYFQEFNYRTIEESPANNIVWLLSNLGGQFGFWMGGSVLCLIEFGEIIIDFIWITIIKLVASCKGLRRRRPQAPYTGPPPTVAELVEAHTNFGFQPDTTSCRPHGEVYPDQQTLPIPGTPPPNYDSLRLQPLDTMESDSEVEAI
Molecule B2 displayed a Kd of 860 nM.

As usually defined, the Kd is a measure of binding affinity in units of concentration. The low end stands for a tighter complex, the high end for a looser complex.
